In US11912782B2, “BCMA monoclonal antibody-drug conjugate” (MedImmune, LLC, priority 2017, dated 2024):
Entries after “also recorded” stand apart in the source; their conditions may differ.

What was measured:
cynomolgus monkey BCMA = assay: FACS binding to Ad293 cells stably expressing cynomolgus BCMA; conditions: Ad293 cells expressing cynoBCMA
Method: (§1) Antibodies 4679, 756, and 15B2GL (as described below) were analyzed by FACS to evaluate binding of antibodies to human BCMA, cynomolgus monkey BCMA, TACI, and BAFF-R using recombinant forms of the receptors stably expressed on Ad293 cells. Binding assays were performed by incubating antibodies 4679, 756, and 15B2GL with 200,000 cells at 4° C. for 45 minutes followed by two washes with PBS+2% FBS. Cells were then incubated with Alexa-Fluor® 647-labeled secondary antibodies at 4° C., followed by two washes in PBS+2% FBS. Anti-BAFF-R, anti-TACI, and anti-human BCMA-APC labeled antibodies were added according to manufacturer's recommended dilution in control wells. Cells were resuspended in 200 uL PBS+2% FBS+DAPI and antibody binding to live cells was analyzed using a Becton Dickinson™ Biosciences LSRII cytometer.

[1] = test system: H929 multiple myeloma cells; assay: Internalization by FACS on H929 cells; assay type: cell-based; conditions: compared to J6M0 and the LO antibodies
Method: The ability of the 15B2GL antibody and LO clones of 15B2GL to bind, internalize, and kill H929 multiple myeloma cells in vitro was assessed using Fab-ZAP and by FACS binding to endogenous BCMA expressed on cell lines as described above. Briefly, antibodies were incubated with 200,000 cells for 30 minutes at 4° C. followed by two washes with PBS+2% FBS. Cells were resuspended in 100 uL cold PBS+2% FBS and kept at 4° C. At certain timepoints, cells were washed and resuspended in warm RPMI+10% FBS and placed into a 37° C. incubator, 5% CO2. At the end of the experiment, cells were washed and then incubated with Alexa-Fluor® 647-labeled secondary antibodies at 4° C., followed by two washes in PBS+2% FBS. Cells were resuspended in 200 μL PBS+2% FBS+DAPI and antibody binding to live cells was analyzed using a Becton Dickinson Biosciences LSRII cytometer.

TACI = biological target: T1, TACI (Homo sapiens, UniProt O14836); assay: FACS binding to Ad293 cells stably expressing TACI
T1 construct: expressed in transfected cells
T1 sequence (O14836 1-293): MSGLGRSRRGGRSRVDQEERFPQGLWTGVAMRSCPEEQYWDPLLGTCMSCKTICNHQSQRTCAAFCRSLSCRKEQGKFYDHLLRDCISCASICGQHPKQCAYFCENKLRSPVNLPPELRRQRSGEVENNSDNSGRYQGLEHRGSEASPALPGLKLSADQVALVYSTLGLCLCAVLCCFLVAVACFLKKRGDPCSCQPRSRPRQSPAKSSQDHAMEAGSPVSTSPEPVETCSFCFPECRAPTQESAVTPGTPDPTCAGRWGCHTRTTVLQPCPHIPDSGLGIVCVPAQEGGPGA
Method: as §1

monomeric human sBCMA = biological target: T2, monomeric human sBCMA (Homo sapiens, UniProt Q02223); assay: Kinetics/affinity measurement by SPR (BioRad ProteOn XPR36), antibody captured by anti-Fc, sBCMA flowed over; assay type: binding; conditions: sBCMA 100-6.25 nM
T2 construct: is comprised of the entire extracellular domain of the molecule; purchased GenScript
T2 sequence (Q02223 1-54 limits assumed): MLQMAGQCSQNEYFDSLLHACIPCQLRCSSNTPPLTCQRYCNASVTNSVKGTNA
Method: The binding of 15B2GL monoclonal antibody and optimized clones I09, L15, P10, N22, and M02 (described in Example 1) was assessed using monomeric human sBCMA (GenScript, Piscataway, N.J.) using a ProteOn™ XPR36 instrument (Bio-Rad, Hercules, Calif.). The binding of J6M0 also was assessed for comparison. Standard amine coupling was used to immobilize 25 μg/ml anti-Fc polyclonal antibody (Jackson ImmunoResearch, West Grove, Pa.) prepared in 10 mM sodium acetate buffer (pH 4.5) to the surface of a ProteOn™ GLC biosensor chip (Bio-Rad, Hercules, Calif.) pre-activated with 20 mM EDAC (1-ethyl-3-(3-dimethylaminopropyl)carbodiimide hydrochloride) and 5 mM Sulfo-NHS (N-hydroxysulfosuccinimide) at a density of ˜200-600 resonance units (RU). 15B2GL, I09, L15, P10, N22, M02, and J6M0 were subsequently injected at a concentration of 1 μg/ml for capture by the immobilized anti-Fc polyclonal antibody. The sensorgram was recorded by flowing two-fold serial dilutions of sBCMA prepared in PBS (pH 7.4) with 0.005% (v/v) Tween®-20, ranging from 100-6.25 nM, over the captured surface for 150 seconds at 75 μL/minute with dissociation time of 600 seconds. ProteOn™ data analysis software was used to analyze the data.

BAFF-R = biological target: T3, BAFF-R (Homo sapiens, UniProt Q96RJ3); assay: FACS binding to Ad293 cells stably expressing BAFF-R
T3 construct: expressed in transfected cells
T3 sequence (Q96RJ3 1-184): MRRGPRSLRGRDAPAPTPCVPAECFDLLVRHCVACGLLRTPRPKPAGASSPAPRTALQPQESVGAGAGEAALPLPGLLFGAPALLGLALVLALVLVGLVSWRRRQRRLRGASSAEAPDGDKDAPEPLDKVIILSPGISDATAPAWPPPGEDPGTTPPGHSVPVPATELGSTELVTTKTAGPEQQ
Method: as §1

- Binding to TACI (TACI): did not bind
- Koff (monomeric human sBCMA): 2.27E−02
- Kon (monomeric human sBCMA): 3.73E+05
- Binding to BAFF-R (BAFF-R): did not bind
B1: 15B2GL: germline form of anti-BCMA monoclonal antibody 15B2; VH SEQ ID NO: 7, VL SEQ ID NO: 8 (antibody, V domains shown)
VH: EVQLVESGGGLVKPGGSLRLSCAASGFTFRSYSMNWVRQAPGKGLEWVSSISGSSNYIYYADSVKGRFTISRDNAKNSLYLQMNSLRAEDTAVYYCARGGNYYVEYFQYWGQGTLVTVSS
VL: EIVLTQSPGTLSLSPGERATLSCRASQYISSNYLAWYQQKPGQAPRLLIYGASNRATGIPDRFSGSGSGTDFTLTISRLEPEDFAVYYCQQYGSSPITFGQGTKLEIK
- Cynomolgus cross-reactivity (cynomolgus monkey BCMA): cynomolgus cross-reactive; also recorded: cyno-cross reactive
- Internalization [1]: unique and rapid internalization
